A short description of data set [1]: cellular trafficking, method not given. As to conditions: glycan lost; control: wild type.
A short description of data set [2]: secretion into CHO culture medium (unpublished data). As to conditions: glycan lost; control: wild type.

B1: angiotensin I-converting enzyme (somatic ACE): N1162Q (protein)
parent chain: MGAASGRRGPGLLLPLPLLLLLPPQPALALDPGLQPGNFSADEAGAQLFAQSYNSSAEQVLFQSVAASWAHDTNITAENARRQEEAALLSQEFAEAWGQKAKELYEPIWQNFTDPQLRRIIGAVRTLGSANLPLAKRQQYNALLSNMSRIYSTAKVCLPNKTATCWSLDPDLTNILASSRSYAMLLFAWEGWHNAAGIPLKPLYEDFTALSNEAYKQDGFTDTGAYWRSWYNSPTFEDDLEHLYQQLEPLYLNLHAFVRRALHRRYGDRYINLRGPIPAHLLGDMWAQSWENIYDMVVPFPDKPNLDVTSTMLQQGWNATHMFRVAEEFFTSLELSPMPPEFWEGSMLEKPADGREVVCHASAWDFYNRKDFRIKQCTRVTMDQLSTVHHEMGHIQYYLQYKDLPVSLRRGANPGFHEAIGDVLALSVSTPEHLHKIGLLDRVTNDTESDINYLLKMALEKIAFLPFGYLVDQWRWGVFSGRTPPSRYNFDWWYLRTKYQGICPPVTRNETHFDAGAKFHVPNVTPYIRYFVSFVLQFQFHEALCKEAGYEGPLHQCDIYRSTKAGAKLRKVLQAGSSRPWQEVLKDMVGLDALDAQPLLKYFQPVTQWLQEQNQQNGEVLGWPEYQWHPPLPDNYPEGIDLVTDEAEASKFVEEYDRTSQVVWNEYAEANWNYNTNITTETSKILLQKNMQIANHTLKYGTQARKFDVNQLQNTTIKRIIKKVQDLERAALPAQELEEYNKILLDMETTYSVATVCHPNGSCLQLEPDLTNVMATSRKYEDLLWAWEGWRDKAGRAILQFYPKYVELINQAARLNGYVDAGDSWRSMYETPSLEQDLERLFQELQPLYLNLHAYVRRALHRHYGAQHINLEGPIPAHLLGNMWAQTWSNIYDLVVPFPSAPSMDTTEAMLKQGWTPRRMFKEADDFFTSLGLLPVPPEFWNKSMLEKPTDGREVVCHASAWDFYNGKDFRIKQCTTVNLEDLVVAHHEMGHIQYFMQYKDLPVALREGANPGFHEAIGDVLALSVSTPKHLHSLNLLSSEGGSDEHDINFLMKMALDKIAFIPFSYLVDQWRWRVFDGSITKENYNQEWWSLRLKYQGLCPPVPRTQGDFDPGAKFHIPSSVPYIRYFVSFIIQFQFHEALCQAAGHTGPLHKCDIYQSKEAGQRLATAMKLGFSRPWPEAMQLITGQPNMSASAMLSYFKPLLDWLRTENELHGEKLGWPQYNWTPNSARSEGPLPDSGRVSFLGLDLDAQQARVGQWLLLFLGIALLVATLGLSQRLFSIRHRSLHRHSHGPQFGSEVELRHS
On to B1, for which the localisation_or_trafficking result in data set [1] is listed as “no change”. Further, the expression_or_secretion result in data set [2] is listed as “no change”.

The values above are taken from publication PMC3929087.
